WO2014027697A1 (dated 2014)
*: point of attachment. Biotin = O=C1N[C@H]2[C@H](CS[C@H]2CCCCC(=O)*)N1; Ahx = NCCCCCC(=O)O

T1: synthetic peptide BAA658-PR1.2 (Streptococcus pneumoniae strain BAA-658, SMILES …)
T1 peptide: {Biotin-Ahx}-PEKPAEETPAPAPKPEQPA-NH2

T2: synthetic peptide BAA658-PR2 (Streptococcus pneumoniae strain BAA-658, SMILES …)
T2 peptide: {Biotin-Ahx}-TPAPAPKPEQPAEQPK-NH2

T3: recombinant PspA-D39 with C-terminal His-tag (Streptococcus pneumoniae strain D39)
T3 construct: Made in E. coli BL21(DE3), purified on Ni Sepharose; immobilized on a CM5 chip in the SPR assay; also called pelB-PspA(D39)-His; PspA-6xHis (D39)
T3 chain: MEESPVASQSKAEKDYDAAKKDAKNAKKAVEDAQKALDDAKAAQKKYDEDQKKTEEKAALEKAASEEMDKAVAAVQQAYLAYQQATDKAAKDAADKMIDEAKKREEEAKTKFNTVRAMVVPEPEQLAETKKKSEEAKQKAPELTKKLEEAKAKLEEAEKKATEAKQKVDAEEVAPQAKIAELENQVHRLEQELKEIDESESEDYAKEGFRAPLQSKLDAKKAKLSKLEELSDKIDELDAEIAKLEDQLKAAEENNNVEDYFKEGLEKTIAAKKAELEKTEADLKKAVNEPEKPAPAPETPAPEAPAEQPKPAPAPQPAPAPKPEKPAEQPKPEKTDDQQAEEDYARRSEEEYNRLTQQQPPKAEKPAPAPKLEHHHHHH

T4: recombinant PspA-TIGR4 with C-terminal His-tag (Streptococcus pneumoniae strain TIGR4)
T4 construct: Made in E. coli BL21(DE3), purified on Ni Sepharose; immobilized on a CM5 chip in the SPR assay; also called pelB-PspA(TIGR4)-His
T4 chain: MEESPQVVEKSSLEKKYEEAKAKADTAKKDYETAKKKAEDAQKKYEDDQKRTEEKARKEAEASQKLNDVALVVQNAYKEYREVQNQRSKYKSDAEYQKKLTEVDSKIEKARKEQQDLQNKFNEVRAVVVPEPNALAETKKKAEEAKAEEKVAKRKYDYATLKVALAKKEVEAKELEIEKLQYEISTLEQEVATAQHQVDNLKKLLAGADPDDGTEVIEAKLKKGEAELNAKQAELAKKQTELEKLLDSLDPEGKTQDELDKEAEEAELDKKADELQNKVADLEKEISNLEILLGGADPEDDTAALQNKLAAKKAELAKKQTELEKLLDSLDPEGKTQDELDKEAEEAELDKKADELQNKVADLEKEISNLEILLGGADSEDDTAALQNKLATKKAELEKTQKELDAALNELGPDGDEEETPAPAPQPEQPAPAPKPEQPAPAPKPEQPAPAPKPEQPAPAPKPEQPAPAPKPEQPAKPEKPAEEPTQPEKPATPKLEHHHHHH

T5: synthetic peptide BAA658-PR3 (Streptococcus pneumoniae strain BAA-658, SMILES …)
T5 peptide: {Biotin-Ahx}-EQPAEQPKPAPAPQP-NH2

T6: synthetic peptide BAA658-PR4 (Streptococcus pneumoniae strain BAA-658, SMILES …)
T6 peptide: {Biotin-Ahx}-KPAPAPQPAPAPKPE-NH2

T7: synthetic peptide BAA658-PR1 (Streptococcus pneumoniae strain BAA-658, SMILES …)
T7 peptide: {Biotin-Ahx}-PEKPAEETPAPAPKPEQ-NH2


Legend:
MBP-PspA-BAA658-S4 = molecular target: T8, MBP-PspA-BAA658-S4 (Streptococcus pneumoniae strain BAA-658); test: ELISA on plates coated with E. coli lysate holding the MBP-tagged fragment, antibody at 1 μg/mL
T8 construct: Tested as cleared E. coli lysate coated on ELISA plates; also called MBP-BAA658(S4)

MBP-PspA-BAA658-S3 [1] = molecular target: T9, MBP-PspA-BAA658-S3 (Streptococcus pneumoniae strain BAA-658); test: as above
T9 construct: Tested as cleared E. coli lysate coated on ELISA plates; also called MBP-BAA658(S3)

[2] = molecular target: T1, synthetic peptide BAA658-PR1.2; test: ELISA, biotinylated peptide on NeutrAvidin plates, antibody at 1 μg/mL
[3] = molecular target: T2, synthetic peptide BAA658-PR2; test: as above
MBP-PspA-BAA658-FL = molecular target: T10, MBP-PspA-BAA658-FL (Streptococcus pneumoniae strain BAA-658); test: ELISA on plates coated with E. coli lysate holding the MBP-tagged protein, antibody at 1 μg/mL
T10 construct: Tested as cleared E. coli lysate coated on ELISA plates; also called full BAA-658 peptide; strain BAA-658 FL

recombinant PspA-BAA658 = recombinant PspA-BAA658 (Streptococcus pneumoniae strain BAA-658); test: SPR, Biacore 3000, PspA immobilized on CM5 chip, antibody as analyte, bivalent binding model (KD1 = kd1/ka1)
[4] = molecular target: T3, recombinant PspA-D39 with C-terminal …; test: as above
[5] = molecular target: T4, recombinant PspA-TIGR4 with C-terminal …; test: as above
[6] = molecular target: T5, synthetic peptide BAA658-PR3; test: ELISA, biotinylated peptide on NeutrAvidin plates, antibody at 1 μg/mL
[7] = molecular target: T6, synthetic peptide BAA658-PR4; test: as above
MBP-PspA-BAA658-S1 = molecular target: T11, MBP-PspA-BAA658-S1 (Streptococcus pneumoniae strain BAA-658); test: ELISA on plates coated with E. coli lysate holding the MBP-tagged fragment
T11 construct: Tested as cleared E. coli lysate coated on ELISA plates; also called MBP-BAA658(S1)

MBP-PspA-BAA658-S2 = molecular target: T12, MBP-PspA-BAA658-S2 (Streptococcus pneumoniae strain BAA-658); test: as above
T12 construct: Tested as cleared E. coli lysate coated on ELISA plates; also called MBP-BAA658(S2)

MBP-PspA-BAA658-S3 [8] = molecular target: T9, MBP-PspA-BAA658-S3; test: as above
[9] = molecular target: T1, synthetic peptide BAA658-PR1.2; test: ELISA, biotinylated peptide on NeutrAvidin plates
[10] = molecular target: T2, synthetic peptide BAA658-PR2; test: ELISA, biotinylated peptide on NeutrAvidin plates
[11] = molecular target: T5, synthetic peptide BAA658-PR3; test: ELISA, biotinylated peptide on NeutrAvidin plates
[12] = molecular target: T6, synthetic peptide BAA658-PR4; test: ELISA, biotinylated peptide on NeutrAvidin plates
[13] = molecular target: T7, synthetic peptide BAA658-PR1; test: ELISA, biotinylated peptide on NeutrAvidin plates

Binder | binding result (MBP-PspA-BAA658-S4) | binding result (MBP-PspA-BAA658-S3 [1]) | binding result [2] | binding result [3] | binding result (MBP-PspA-BAA658-FL) | Kd (recombinant PspA-BAA658) [nM] | Kd [4] [nM] | Kd [5] [nM] | binding result [6] | binding result [7] | binding result (MBP-PspA-BAA658-S1) | binding result (MBP-PspA-BAA658-S2) | binding result (MBP-PspA-BAA658-S3 [8]) | binding result [9] | binding result [10] | binding result [11] | binding result [12] | binding result [13]
anti-PspA mouse monoclonal antibody 139G3 (antibody, V domains shown, Hybridoma antibody, mouse IgG2a, kappa, raised against PspA-TIGR4; also called clone 139G3) VH: EVQLQQSGTEVVKPGASVKLSCTASGFNIKDTYIHWVKKRPEQGLEWIGRIDPANGNTRYDPKFQGKATMTADTSSNTAYLQVSSLTSEDTAVYYCSRSDKFVWFAYWGQGTLVTVSA VL: DIVLTQSPVSLTVYMGQRATISCRASQSVSTSSYNYIHWFQQKPGQPPKLLIKYASTLESGVPARFSGGGSGTDFTLNIHPVEEEDAATYSCQHSWEIPYTFGGGTKLEIK | binds | binds | binds | binds | binds |  |  |  |  |  |  |  |  |  |  |  |  | 
anti-PspA mouse monoclonal antibody 140H1 (antibody, V domains shown, Hybridoma antibody, mouse IgG1, kappa, raised against PspA-D39; also called clone 140H1) VH: QIQLVQSGPELKKPGETVRISCKASGYTFTTAGMQWVQKVPGKGLQWIGWINTHSGVPTYAEDFKGRIAFSLETSASAAYLQISNLKDEDTATYFCGRSGTGYAMDYWGQGTSVIVSS VL: DTVMSQSPSSLVVSVGEKVSMSCKSSQNLLYTNNQKNYLAWYQQKPGQSPKLLIYWASTRESGVPDRFTGSGSGTDFTLTITSVKAEDLAVYYCQQYYTYPYTFGGGTKLEIK | binds | binds |  |  | binds | < 100 | < 100 | < 100 | binds | binds |  |  |  |  |  |  |  | 
anti-PspA mouse monoclonal antibody 140G1 (antibody, V domains shown, Hybridoma antibody, mouse IgG1, kappa, raised against PspA-D39; also called clone 140G1) VH: QVQLKESGPGLVAPSQSLSITCTVSGFSLIGYGVNWVRQPPGKGLEWLGMIWGDGSTDYNLVLKSRLSINKDNSKSQVFLQMNSLQTDDTARYYCARGPQWGFAYWGQGTLVSVSA VL: DIVMSQSPSSLAVSAGEKVTMSCKSSQSLLNSRTRKNYLAWYQQKPGQSPKLLIYWASTRESGVPDRFTGSGSGTDFTLTISSVQAEDLAVYYCKQSYNLPTFGGGTKLEIK | binds |  |  |  | binds |  |  |  |  |  | no binding (tested: 1 μg/mL) | no binding (tested: 1 μg/mL) | no binding (tested: 1 μg/mL) | no binding (tested: 1 μg/mL) | no binding (tested: 1 μg/mL) | no binding (tested: 1 μg/mL) | no binding (tested: 1 μg/mL) | no binding (tested: 1 μg/mL)
anti-PspA mouse monoclonal antibody 140G11 (antibody, V domains shown, Hybridoma antibody, mouse IgG2a, kappa, raised against PspA-D39; also called clone 140G11) VH: QVQLKESGPGLVAPSQSLSITCTVSGFSLTGYGVNWVRQPPGKGLEWLGMIWGDGSTDYNSALKSRLSISKDNSKSQVFLKMNSLQTDDTARYYCARGPQWGFAYWGQGTLVTVSA VL: DIVMSQSPSSLAVSAGEKVTMSCKSSQSLLNSRTRKNYLAWYQQKPGQSPKLLIYWASTRESGVPDRFTGSGSGTDFTLTISSVQAEDLAVYYCKQSYNLPTFGGGTKLEIK |  |  |  |  |  |  |  |  |  |  | no binding (tested: 1 μg/mL) | no binding (tested: 1 μg/mL) | no binding (tested: 1 μg/mL) | no binding (tested: 1 μg/mL) | no binding (tested: 1 μg/mL) | no binding (tested: 1 μg/mL) | no binding (tested: 1 μg/mL) | no binding (tested: 1 μg/mL)
